Measurements taken from paper PMC9670971.
Where “and” joins values, the source holds several entries; their conditions need not be identical. Equal values may be shown once.

Target: Recombinant Mip (25 kDa) (L. pneumophila) (UniProt Q5ZXE0)
Test: co-IP

## Flagellin FlaA (LPC_0756), native (natural protein)
  antibody signal from Western blot (ImageJ) (relative units): 4380 and 4310
  band intensity in Coomassie stained gel (ImageJ) (relative units): 5680 and 5740

## Lpc2061-6xHis-Tag (natural protein)
  antibody signal from Western blot (ImageJ) (relative units): 4690 and 4520
  band intensity at 15 kDa in Coomassie stained gel (ImageJ) (relative units): 4600 and 7390
  band intensity in Coomassie stained gel (ImageJ) (relative units): 1900 and 795

## SspB-Strep-TagII (natural protein)
  antibody signal from Western blot (ImageJ) (relative units): 5030 and 5180
  band intensity in Coomassie stained gel (ImageJ) (relative units): 4300 and 4240
